From paper PMC13370731
Values joined by “and” are separate entries in the source; they are usually repeats but may differ in a detail not shown here. Equal entries are not always repeated.

Columns and labels:
[1] = target: MtrR‐His6 (small protein MtrR with a C‐terminal His‐tag, heterologously expressed in Escherichia coli) (Methanosarcina mazei Gö1); assay: SEC; IMAC‐purified MtrR‐His6 on an Enrich SEC 70 column, detection at 214 nm, calibrated with a standard protein mixture; phosphate buffer (50 mM sodium phosphate, 300 mM NaCl, pH 8.0); peaks at 10 and 13 mL
[2] = target: soluble domain of the MtrA subunit (M1 – S168), strep‐tagged, RED‐labeled (Methanosarcina mazei Gö1) (UniProt O59640); assay: MST; 20 nM RED‐labeled strep‐MtrA with MtrR‐His6 in 16 concentrations (calculated on monomeric molecular mass); standard capillaries, 100% excitation power, medium MST power; MO.AFFINITY analysis; two biological replicates
Sequence of UniProt O59640 (O59640 1-168): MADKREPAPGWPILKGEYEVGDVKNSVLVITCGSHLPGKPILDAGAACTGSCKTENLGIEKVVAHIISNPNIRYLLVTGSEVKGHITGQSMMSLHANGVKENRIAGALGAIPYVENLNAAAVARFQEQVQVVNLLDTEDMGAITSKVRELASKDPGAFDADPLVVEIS

stoichiometry N [1]: 2 and < 6
Kd [2]: 0.11 µM
Substance: MtrR‐His6 (small protein MtrR with a C‐terminal His‐tag, heterologously expressed in Escherichia coli) (natural protein)
